2 molecules from article PMC3489827 (PLoS ONE, 2012) can be followed below.

The target in assay [1] is HeV-G globular head domain (174–602) (Hendra virus) (UniProt O89343). Description: crystal structure.
A further assay addresses T1, Ephrin-B2 (S27-D167) (UniProt P52799 27-167).
T1 construct: also called ephrin-B2 receptor; not shown: Fc, C-terminal, cleaved
T1 sequence (looked up): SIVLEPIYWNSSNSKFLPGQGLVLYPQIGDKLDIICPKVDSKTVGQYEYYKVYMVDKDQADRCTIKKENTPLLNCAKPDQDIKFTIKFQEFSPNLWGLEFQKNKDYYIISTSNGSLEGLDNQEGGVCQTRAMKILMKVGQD
In words: crystal structure. The conditions noted are these: both partners purified.

On to “HeV-G globular head domain (174–602) (from UniProt O89343 174-602) (domain or fragment)”, for which the stoichiometry N in assay [1] amounted to 2.

B1: HeV-G globular head domain (174–602) (domain or fragment)
chain: ISQGVSDLVGLPNQICLQKTTSTILKPRLISYTLPINTREGVCITDPLLAVDNGFFAYSHLEKIGSCTRGIAKQRIIGVGEVLDRGDKVPSMFMTNVWTPPNPSTIHHCSSTYHEDFYYTLCAVSHVGDPILNSTSWTESLSLIRLAVRPKSDSGDYNQKYIAITKVERGKYDKVMPYGPSGIKQGDTLYFPAVGFLPRTEFQYNDSNCPIIHCKYSKAENCRLSMGVNSKSHYILRSGLLKYNLSLGGDIILQFIEIADNRLTIGSPSKIYNSLGQPVFYQASYSWDTMIKLGDVDTVDPLRVQWRNNSVISRPGQSQCPRFNVCPEVCWEGTYNDAFLIDRLNWVSAGVYLNSNQTAENPVFAVFKDNEILYQVPLAEDDTNAQKTITDCFLLENVIWCISLVEIYDTGDSVIRPKLFAVKIPAQCS
In the case of B1, the “stoichiometry N” value with Ephrin-B2 (S27-D167) was 1.
